Experiment [1] addresses H3K9me0 peptide. Description: FP. The conditions noted are these: complex.
Experiment [2] has as its target G9a ANK-SET, N-terminally 6xHis-tagged (His:G9a) or N-terminally Maltose Binding Protein tagged (MBP:G9a) (human). As to the kind of experiment: pull-down.
For experiment [3], the target named is fluoresceinated H3 1-20 K9me2 peptide (UniProt P68431). Description: fluorescence polarisation. Background: Polarisation of emitted light reports the rotation of a fluorescent probe.
Experiment [4] has as its target unmethylated (H3K9me0) mononucleosome. As to the kind of experiment: fluorescence polarisation.
In experiment [5] the target is G9a ANK-SET, tag cleaved (human). As to the kind of experiment: SEC-MALS. (SEC sorts molecules by how far they enter the pores of the column.)

For orientation: Kd means the concentration at which binding is half-saturated. A higher Kd goes with weaker binding. Broadly, the stoichiometry N is a count of units in the complex or per binding partner.

G9a ANK-SET homodimer, sequence (Q96KQ7 whole entry, looked up): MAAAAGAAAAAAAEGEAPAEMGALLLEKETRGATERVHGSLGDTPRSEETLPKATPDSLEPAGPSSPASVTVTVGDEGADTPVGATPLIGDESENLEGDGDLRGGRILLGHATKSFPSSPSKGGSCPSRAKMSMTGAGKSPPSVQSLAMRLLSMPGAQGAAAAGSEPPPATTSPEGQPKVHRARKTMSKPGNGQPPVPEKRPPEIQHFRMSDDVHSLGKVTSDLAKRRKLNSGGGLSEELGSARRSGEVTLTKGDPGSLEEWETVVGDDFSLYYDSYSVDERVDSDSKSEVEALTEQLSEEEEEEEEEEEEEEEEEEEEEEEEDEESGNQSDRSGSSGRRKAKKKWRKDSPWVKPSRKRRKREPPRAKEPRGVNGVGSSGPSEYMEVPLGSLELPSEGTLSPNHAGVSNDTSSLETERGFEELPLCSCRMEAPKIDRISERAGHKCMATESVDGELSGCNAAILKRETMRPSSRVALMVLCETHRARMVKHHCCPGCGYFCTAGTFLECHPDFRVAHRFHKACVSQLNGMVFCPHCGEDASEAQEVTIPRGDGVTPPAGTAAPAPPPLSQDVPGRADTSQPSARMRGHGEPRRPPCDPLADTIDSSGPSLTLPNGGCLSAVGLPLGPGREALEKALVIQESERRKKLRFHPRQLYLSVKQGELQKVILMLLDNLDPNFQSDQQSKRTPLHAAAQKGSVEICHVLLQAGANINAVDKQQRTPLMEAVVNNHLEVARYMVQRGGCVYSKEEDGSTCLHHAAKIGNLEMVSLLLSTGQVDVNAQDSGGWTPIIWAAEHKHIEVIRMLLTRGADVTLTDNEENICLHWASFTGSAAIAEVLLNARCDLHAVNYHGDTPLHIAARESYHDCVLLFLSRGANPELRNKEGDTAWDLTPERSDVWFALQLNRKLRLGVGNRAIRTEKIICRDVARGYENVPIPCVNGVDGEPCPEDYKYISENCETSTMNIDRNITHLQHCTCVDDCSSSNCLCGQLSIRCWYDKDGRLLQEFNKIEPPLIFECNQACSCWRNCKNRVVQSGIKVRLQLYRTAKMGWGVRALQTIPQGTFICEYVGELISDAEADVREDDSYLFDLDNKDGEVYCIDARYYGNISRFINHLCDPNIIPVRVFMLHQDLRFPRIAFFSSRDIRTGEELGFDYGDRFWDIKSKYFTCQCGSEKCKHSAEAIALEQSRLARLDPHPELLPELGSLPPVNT

In turn, “G9a ANK-SET homodimer (from UniProt Q96KQ7)” had a Kd in experiment [1] of 100 µM.

With “G9a ANK-SET, N-terminally 6xHis-tagged (His:G9a) or N-terminally Maltose Binding Protein tagged (MBP:G9a) (domain or fragment)”, the stoichiometry N in experiment [2] was 2.

For the substance GLP ANK-SET homodimer (complex), the fold reduced binding in experiment [3] was 12.5 times. Also, the Kd in experiment [4] was found to be 26.3 µM.

Substance “GLP ANK-SET, N-terminally Maltose Binding Protein tagged (MBP:GLP) (domain or fragment)” returned a stoichiometry N in experiment [2] of 1.

Turning to “GLP ANK-SET, tag cleaved (domain or fragment)”, the stoichiometry N in experiment [5] came out at 1.
